These results are taken from patent US20040014207A1.

This experiment concerns the target murine B7-DC (murine) (UniProt Q9WUL5). The experiment can be described thus: flow cytometry competition; murine bone marrow derived dendritic cells preincubated with PD-1.Ig, then stained with sHIgM12. In general terms: Flow cytometry measures light scatter and fluorescence of single cells or particles in a stream.

Sequence of murine B7-DC (murine) (Q9WUL5 20-247): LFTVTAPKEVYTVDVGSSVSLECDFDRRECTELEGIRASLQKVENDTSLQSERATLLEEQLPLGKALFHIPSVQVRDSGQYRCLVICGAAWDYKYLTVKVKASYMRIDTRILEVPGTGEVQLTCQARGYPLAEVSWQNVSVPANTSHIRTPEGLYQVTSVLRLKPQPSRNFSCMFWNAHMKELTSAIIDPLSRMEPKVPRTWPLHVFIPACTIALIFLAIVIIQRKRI
Sequence of PD-1.Ig fusion protein (Fc fusion) (Q02242 25-169): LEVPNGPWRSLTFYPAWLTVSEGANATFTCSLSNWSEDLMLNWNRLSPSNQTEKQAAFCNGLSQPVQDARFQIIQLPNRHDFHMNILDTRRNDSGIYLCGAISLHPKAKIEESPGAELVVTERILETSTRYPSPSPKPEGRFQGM

For PD-1.Ig fusion protein (Fc fusion), the sHIgM12 staining remaining, percent of the level in the absence of PD-1 was 50%.
